The values below come from patent US20250277050A1 (MEDICAL COLLEGE OF WISCONSIN, published 2025).

Assay [1] has as its target T1, human CD30 expressed on the cell surface (human, UniProt P28908 19-595).
T1 construct: whole, on cells; also called huCD30; cell-surface expressed CD30
T1 sequence (looked up): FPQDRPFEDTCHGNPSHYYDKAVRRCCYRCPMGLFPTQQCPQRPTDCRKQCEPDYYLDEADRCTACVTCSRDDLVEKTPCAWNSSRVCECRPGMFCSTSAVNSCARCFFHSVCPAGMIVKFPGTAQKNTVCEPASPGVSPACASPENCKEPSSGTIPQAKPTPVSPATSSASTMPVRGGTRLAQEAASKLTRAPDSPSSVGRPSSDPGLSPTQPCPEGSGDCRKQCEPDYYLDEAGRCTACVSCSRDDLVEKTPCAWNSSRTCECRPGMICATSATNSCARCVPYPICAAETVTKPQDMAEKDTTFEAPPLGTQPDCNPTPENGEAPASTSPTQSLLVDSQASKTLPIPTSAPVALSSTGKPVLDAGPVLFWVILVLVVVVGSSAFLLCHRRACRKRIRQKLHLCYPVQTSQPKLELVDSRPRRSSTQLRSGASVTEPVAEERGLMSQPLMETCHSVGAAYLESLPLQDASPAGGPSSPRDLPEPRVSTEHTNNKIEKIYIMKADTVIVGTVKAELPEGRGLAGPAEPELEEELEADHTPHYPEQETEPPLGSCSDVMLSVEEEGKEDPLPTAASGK
As to the kind of experiment: flow cytometry on CD30+ and CD30- cell lines. The protocol: Flow cytometry analysis was preformed using purified antibody on CD30+ cell lines (SU-DHL-1, RPMI6666, […]) and a CD30− cell line (OCIAML2). A commercially available α-huCD30 antibody (clone BY88) and an isotype control were also tested.
We have employed hybridoma technology to generate novel murine anti-human CD30 mAbs. Mice were immunized and boosted with purified human GST-tagged CD30. Mouse spleen cells were then harvested and fused with myeloma cells to generate antibody secreting hybridoma. Hybridoma supernatants were screened for specificity to purified CD30 protein by ELISA, and GST specific clones were eliminated. […] Specific binding of our mAbs to cell-surface expressed CD30 was assessed by flow cytometry (FIG. 1) using 293T cells (CD30−), lentiviral transduced 293T cells expressing huCD30, and K562 cells which are naturally CD30+. The 293T (CD30−), 293T LV huCD30 (transduced with human CD30), SU-DHL-1 (lymphoma), RPMI.6666 (lymphoma) or K562 (CML) cell lines were incubated with each antibody in the form of unpurified hybridoma supernatant, and then incubated with an Alexa Fluor 647-labeled anti-mouse IgG antibody. Cell-associated fluorescence was determined by FACS.
For orientation: In flow cytometry, cells or beads pass a laser one at a time.

The target of assay [2] is T1, human CD30 expressed on the cell surface. As to the kind of experiment: flow cytometry, purified antibody on cells with CD30 surface expression.

Substitutions are numbered along the chain they refer to.

B1: 10C2 (antibody, V domains shown)
VH: QVQLEQSGPVLVKPGASVKMSCKASGYTFTDYYMNWVKQSHGKSLEWIGVINPYNGGTSYNQKFKGKATLTVDKSSSTACMELNCLTSEDSAVYYCTLGAYWGQGTSVTVSS
VL: not shown
notes: Murine anti-human CD30 monoclonal antibody from a hybridoma, detected with anti-mouse IgG; also called monoclonal antibody 10C2; anti-CD30 mAb 10C2
Consider B1, for which the binding result in assay [1] was “binds”.

B2: 8D10 (antibody, V domains shown)
VH: QVQLQESGTELVKPGASVKLSCKASGYTFTSYWMHWMKQRPGQGLEWIGNINPSNGGTNYNEKFKNKATLTVDKSSSTAYMQLSSLTSEDSAVYYCARRDYYYGSSYGFDVWGTGTTVTVSS
VL: DIVMTQSPASQSASLGESVTITCLASQTIGTWLAWYQQKPGKSPQFLIYAATSLADGVPSRFSGSGSGTKFSFKISSLQAEDFVSYYCQQLYSTPFTFGGGTKLEIK
notes: Murine anti-human CD30 monoclonal antibody from a hybridoma, detected with anti-mouse IgG; also called monoclonal antibody 8D10; anti-CD30 mAb 8D10
As to B2, the binding result in assay [1] was “binds”.

B3: 13H1 (antibody, V domains shown)
VH: QVQLQQSGTELVKPGASVKLSCKASGHTFTSYWMHWVKQRPGQGLEWIGNINPSNGGTNYNEKFKSKATLTVDKSSSTAYMQLSSLTSEDSAVYYCARRGYYGSSSYWSFDVWGTGTTVTVSS
VL: DIVMTQTPKSMSMSVGERVTLSCKASENVGTYVSWYQQKPEQSPKVLIYGASNRFTGVPDRFTGSGSATDFTLTISSVQTEDLADYHCGQSYSYPLTFGAGTKLELK
notes: Murine anti-human CD30 monoclonal antibody from a hybridoma, detected with anti-mouse IgG; also called monoclonal antibody 13H1
For B3, the binding result in assay [1] is on record as “binds”.

B4: 15B8 (antibody, V domains shown)
VH: QVQLEQSGTELVKPGASVKLSCKASGYTFTSYWMHWVKQRPGQGLEWIGNINPSNGGTNYNEKFKSKATLTVDKSSSTAYMQLSSLTSEDSAIYYCARRNNYYASSPFAYWGQGTLVSVSA
VL: DIVMTQTPASLSASVGETVTITCRASGNIHNYLAWYQQKQGKSPQLLVYNAKTLADGVPSRFSGSGSGTQYSLKINSLQPEDFGSYYCQHFWSTPFTFGSGTKLEIK
notes: Murine anti-human CD30 monoclonal antibody from a hybridoma, detected with anti-mouse IgG; also called monoclonal antibody 15B8
For the molecule B4, in assay [2], the binding result was “binds”.

B5: 12B1 (antibody, V domains shown)
VH: EVKLEESGTELVKPGASVKLSCKASGYTFTSYWMHWVKQRPGQGLEWIGNINPTNGGTNYNEKFKSKATLTVDKSSRTAYMQLSSLTSGDSAVYYCARRDFITTSGFAYWGQGTLVTVSA
VL: B4 VL with P8T, A13T, I29L, N31S, A34T, N76D, S93T
notes: Murine anti-human CD30 monoclonal antibody from a hybridoma, detected with anti-mouse IgG; also called monoclonal antibody 12B1
For B5, in assay [1], the binding result is given as “binds”.
